Results published in patent publication US20230357444A1 (published 2023).
Numbering of substitutions follows the chain as printed. Names and notes keep the numbering of the source. Values belong to the binder of their own block, whether it stands above or below them.

Assays:
[1] = target: T1, 1-27 CD3-Fc (N-terminal amino acids 1-27 of the mature human CD3 epsilon chain fused to the hinge and Fc … (human)); test: SPR (Biacore), 1-27 CD3-Fc immobilised
T1 construct: The construct was made with a 19 aa immunoglobulin leader; also called 27 aa huCD3E; human CD3 epsilon (aa 1-27)-Fc fusion protein

[2] = target: T2, human CD3 (native CD3 complex on human T cells) (human, UniProt P07766 23-207); test: FACS, HPB-ALL
T2 construct: whole, on cells; also called human CD3+ T cell line HPB-ALL; human CD3 positive PBMC
T2 sequence (P07766 23-207, one chain of several): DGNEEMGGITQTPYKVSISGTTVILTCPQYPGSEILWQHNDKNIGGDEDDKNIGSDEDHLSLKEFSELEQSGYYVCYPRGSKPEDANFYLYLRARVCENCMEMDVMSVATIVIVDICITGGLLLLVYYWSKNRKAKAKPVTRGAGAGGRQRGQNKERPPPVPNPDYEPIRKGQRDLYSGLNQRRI

Kd [1]: 249 nM
B1: EGFR-21-63 LH × A2J HLP (bispecific antibody)
chain: DIVLTQSPASLPVSLGQRATISCRASQSVSSSTYSYIHWYQQKPGQPPKLLITYASNLESGVPARFSGSGSGTDFTLDIHPVEEDDSSTYYCQHSWEIPFTFGSGTKLEIKGGGGSGGGGSGGGGSQVQLQQSGPDLVKPGASVKMSCKASGHTFTDCVIIWVKQRAGQGLEWIGQIYPGTGRSYYNEIFKGKATLTADKSSNTVHIQLSSLTSEDSAVYFCALSTLIHGTWFSYWGQGTLVTVSSGGGGSEVQLLESGGGLVQPGGSLKLSCAASGFTFNVYAMNWVRQAPGKGLEWVARIRSKYNNYATYYADSVKKRFTISRDDSKNTAYLQMNNLKTEDTAVYYCVRHGNFGNSYLSWWAYWGQGTLVTVSSGGGGSGGGGSGGGGSELVVTQEPSLTVSPGGTVTLTCRSSTGAVTSGYYPNWVQQKPGQAPRGLIGATDMRPSGTPARFSGSLLGGKAALTLSGVQPEDEAEYYCALWYSNRWVFGGGTKLTVLHHHHHH
notes: also called EGFR LH × A2J HLP

Kd [1]: 2460 nM
B2: EGFR-21-63 LH × E2M HLP (bispecific antibody)
chain: B1 chain with V282G, K319E, G353R, W363F
notes: also called EGFR LH × E2M HLP

binding result [2]: binds
B3: MCSP-G4 HLP × E2M HLP (bispecific antibody)
chain: QVQLVQSGAEVKRPGASMKVSCKASGYTFTNYYIHWVRQAPGQGLEWMGWINPNSGATNYAQKFQGRVTMTRDTSTSTVYMELSSLRSEDTAVYYCAKSWVSWFASWGQGTLVTVSSGGGGSGGGGSGGGGSELVMTQSPDSLAVSLGERATINCKSSQSVLNSSNNRNYLAWYQQKPGQPPKLLIYWASTRESGVPDRFSGSGSGTDFTLTISGLQAEDVAVYYCQQHYSTPFTFGPGTKVDIKSGGGGSEVQLLESGGGLVQPGGSLKLSCAASGFTFNGYAMNWVRQAPGKGLEWVARIRSKYNNYATYYADSVKERFTISRDDSKNTAYLQMNNLKTEDTAVYYCVRHRNFGNSYLSWFAYWGQGTLVTVSSGGGGSGGGGSGGGGSELVVTQEPSLTVSPGGTVTLTCRSSTGAVTSGYYPNWVQQKPGQAPRGLIGATDMRPSGTPARFSGSLLGGKAALTLSGVQPEDEAEYYCALWYSNRWVFGGGTKLTVLHHHHHH
